US8143025B2, “Antibodies against vascular endothelial growth factor receptor-1” (ImClone LLC, priority 2004, dated 2012)

Legend:
[1] = system: HT-29 xenograft; assay: HT-29 colon cancer xenograft; assay type: in vivo, mouse; conditions: monotherapy, FIG. 26A
Description: Female athymic nu/nu mice, 6-8 weeks of age, were injected subcutaneously on the lateral dorsal surface with 0.4 mL volume of a suspension containing a human tumor cell line in media, diluted 1:1 with MATRIGEL™ (BD Biosciences). The cell lines used in xenograft models, with the cell doses indicated in parenthesis (10^6 cells/mouse), were: human colon carcinoma cell lines DLD-I (5), GEO (5) and HT-29 (5); human breast carcinoma cell lines DU4475 (2), MDA-MB-231 (5), MDA-MB-435 (5), and BT474 (5). When tumors reached approximately 200-300 mm^3, mice were randomized by tumor size and divided into treatment groups. Tumor growth was evaluated approximately twice weekly, with tumor volume calculated as π/6* (Length*Width^2), where Length=longest diameter and Width=diameter perpendicular to Length. Tumor dimensions were measured with calipers. T/C % was calculated as 100*(Final Treatment Tumor Volume/Initial Treatment Tumor Volume)/(Final Control Tumor Volume/Initial Control Tumor Volume).
18F1 was diluted in 0.9% USP saline (Braun) or phosphate buffered saline (PBS) and administered intraperitoneally in a volume of 0.5 mL per mouse. The effect of treatment on tumor growth was analyzed using repeated measures analysis of variance (RM ANOVA), p<0.05 was considered significant.

[2] = target: T1, HuVEGFR-I-Fc (Homo sapiens, UniProt P17948); assay: Plate-bound receptor binding ELISA (Example 2B); conditions: FIG. 32A, 100 ng/well
T1 construct: soluble recombinant VEGFR-I Fc (rhuVEGFR-1 Fc) proteins were purchased from (R&D Systems Inc); purchased R&D Systems Inc
Description: (§1) HuVEGFR-I-Fc, mouse VEGFR-I-AP (hnClone Systems) or huVEGFR-2-AP (ImClone Systems) (100 ng/well) was coated on 96 strip-well plates and blocked with 5% milk/PBS. The binding of 18F1 and other anti-human VEGFR-I antibodies or a rat anti-mouse VEGFR-I antibody, MF1 (ImClone Systems, ref. 18), to plate bound VEGFR-I or VEGFR-2 was evaluated as described for the hybridoma supernatant screening above, except that bound antibody was detected with a goat anti-human kappa-HRP antibody (Bio Source International, Camarillo, Calif.) for 18F1 and anti-human VEGFR-2 antibody ICl 1. or a goat anti-rat IgG-HRP antibody (BioSource International) for MF1.

[3] = target: huVEGFR-2-AP (Homo sapiens, UniProt P35968); assay: Plate-bound receptor binding ELISA (Example 2B); conditions: FIG. 32C, 100 ng/well
Description: as §1

[4] = target: T2, mouse VEGFR-I-AP (Mus musculus, UniProt P35969); assay: Plate-bound receptor binding ELISA (Example 2B); conditions: FIG. 32B, 100 ng/well
T2 sequence (P35969 23-759 limits assumed): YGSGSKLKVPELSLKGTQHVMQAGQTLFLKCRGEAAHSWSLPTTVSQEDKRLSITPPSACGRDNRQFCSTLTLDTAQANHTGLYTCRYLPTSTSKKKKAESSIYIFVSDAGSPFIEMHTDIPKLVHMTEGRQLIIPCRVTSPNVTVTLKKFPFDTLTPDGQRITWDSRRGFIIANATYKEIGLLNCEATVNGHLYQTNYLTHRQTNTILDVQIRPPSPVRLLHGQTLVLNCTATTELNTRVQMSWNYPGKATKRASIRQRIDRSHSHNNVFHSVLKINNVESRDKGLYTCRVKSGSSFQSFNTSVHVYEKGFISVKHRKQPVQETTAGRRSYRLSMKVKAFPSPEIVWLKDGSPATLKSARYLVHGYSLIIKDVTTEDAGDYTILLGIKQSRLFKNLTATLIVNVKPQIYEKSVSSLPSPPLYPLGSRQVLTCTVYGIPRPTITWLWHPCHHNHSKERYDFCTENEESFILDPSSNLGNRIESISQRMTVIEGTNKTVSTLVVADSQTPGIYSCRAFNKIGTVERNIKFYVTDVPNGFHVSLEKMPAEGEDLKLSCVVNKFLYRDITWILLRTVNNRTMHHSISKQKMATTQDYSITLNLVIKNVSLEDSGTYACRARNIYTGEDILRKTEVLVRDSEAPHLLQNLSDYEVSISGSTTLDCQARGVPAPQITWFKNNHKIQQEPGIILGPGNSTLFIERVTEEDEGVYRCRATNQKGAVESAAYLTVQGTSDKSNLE
Description: as §1

T1 sequence (P17948 27-758 limits assumed): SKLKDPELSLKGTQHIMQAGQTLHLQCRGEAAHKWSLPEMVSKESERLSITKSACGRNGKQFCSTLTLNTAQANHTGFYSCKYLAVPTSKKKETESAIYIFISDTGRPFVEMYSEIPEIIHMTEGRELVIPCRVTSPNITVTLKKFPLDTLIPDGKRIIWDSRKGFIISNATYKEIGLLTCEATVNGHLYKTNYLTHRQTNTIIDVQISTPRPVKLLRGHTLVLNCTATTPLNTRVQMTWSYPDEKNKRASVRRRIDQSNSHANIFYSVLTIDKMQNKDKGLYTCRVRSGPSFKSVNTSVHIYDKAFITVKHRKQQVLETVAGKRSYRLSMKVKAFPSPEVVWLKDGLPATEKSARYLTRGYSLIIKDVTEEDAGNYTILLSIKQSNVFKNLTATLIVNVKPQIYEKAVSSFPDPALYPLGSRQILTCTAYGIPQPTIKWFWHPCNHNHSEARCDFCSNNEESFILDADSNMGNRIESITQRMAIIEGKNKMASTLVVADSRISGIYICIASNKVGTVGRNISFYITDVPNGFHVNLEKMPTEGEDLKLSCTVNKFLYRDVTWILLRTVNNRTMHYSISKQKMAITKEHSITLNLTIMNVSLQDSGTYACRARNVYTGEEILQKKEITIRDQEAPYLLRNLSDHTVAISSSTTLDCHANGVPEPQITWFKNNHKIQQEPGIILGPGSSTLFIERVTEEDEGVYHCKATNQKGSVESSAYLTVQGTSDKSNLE
Sequence of huVEGFR-2-AP (P35968 20-764 limits assumed): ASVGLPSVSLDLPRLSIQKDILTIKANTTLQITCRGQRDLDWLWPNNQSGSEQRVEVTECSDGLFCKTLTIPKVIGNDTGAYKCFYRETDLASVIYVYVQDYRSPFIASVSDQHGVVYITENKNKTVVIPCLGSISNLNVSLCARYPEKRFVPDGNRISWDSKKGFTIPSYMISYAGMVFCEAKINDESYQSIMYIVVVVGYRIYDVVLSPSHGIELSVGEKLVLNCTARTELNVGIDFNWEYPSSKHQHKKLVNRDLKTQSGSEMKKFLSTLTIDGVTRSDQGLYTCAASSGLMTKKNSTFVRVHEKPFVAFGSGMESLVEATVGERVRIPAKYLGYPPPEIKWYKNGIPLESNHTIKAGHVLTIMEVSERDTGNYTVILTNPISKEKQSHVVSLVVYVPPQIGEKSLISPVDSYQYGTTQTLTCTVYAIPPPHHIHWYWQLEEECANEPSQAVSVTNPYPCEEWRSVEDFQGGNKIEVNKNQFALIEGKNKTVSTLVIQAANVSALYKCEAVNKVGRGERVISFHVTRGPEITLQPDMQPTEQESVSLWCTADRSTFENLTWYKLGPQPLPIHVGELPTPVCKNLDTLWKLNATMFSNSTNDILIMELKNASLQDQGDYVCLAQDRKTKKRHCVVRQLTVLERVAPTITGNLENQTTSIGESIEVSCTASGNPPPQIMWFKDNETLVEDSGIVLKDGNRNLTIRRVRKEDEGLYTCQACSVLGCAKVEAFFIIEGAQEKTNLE

18F1: human anti-VEGFR-1 monoclonal antibody clone; VL SEQ ID NO: 16, VH SEQ ID NO: 20 [Clone 18F1]
antitumor effect against HT-29 colon cancer xenografts [1]: significant antitumor effect | reactivity with human VEGFR-I [2]: specific reactivity | reactivity with human VEGFR-2 [3]: no cross reactivity | reactivity with mouse VEGFR-I [4]: no cross reactivity
